± gives the standard error. Variants at the floor of the assay were thinned out.
B1: glmS ribozyme (parent)
chain: AUAAAAGCGCCAGAACUACAGAAAUGUAGUUGACGAGGAGGAGGUUUAUCGAAUUUUCGGCGGAUGCCUCCAAA

Columns and labels:
Settings in all cases: with glucosamine-6-phosphate
[1] = variants of: B1; assay: self-cleavage kobs at 640 uM GlcN6P; higher = faster cleavage; RNA array
In short: (§1)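 kcat and KM were obtained from weighted Michaelis–Menten fits across concentrations of kobs values. Those came from one- or two-exponential decay fits to per-tile medians normalised to baseline and to non-cleaving reference variants. The variants were barcoded ribozymes transcribed in situ by E. coli RNA polymerase on sequenced MiSeq chips and tracked through a hybridised Cy3 probe at 37 °C, with 40 μM to 10 mM glucosamine-6-phosphate in HEPES/KCl/Mg(OAc)2 buffer flowed in.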

[2] = variants of: B1; assay: self-cleavage kobs at 2500 uM GlcN6P; higher = faster cleavage; RNA array
In short: as §1

[3] = variants of: B1; assay: self-cleavage kobs at 10000 uM GlcN6P; higher = faster cleavage; RNA array
In short: as §1

Row | Variant | self-cleavage kobs at 640 uM GlcN6P [1] | self-cleavage kobs at 2500 uM GlcN6P [2] | self-cleavage kobs at 10000 uM GlcN6P [3]
1 | C11U U30G U57A C61U | < 1e-05 s⁻¹ |  | 
2 | C10G C34G G41U U45A | < 1e-05 s⁻¹ | < 1e-05 s⁻¹ | 
3 | C10G C16U A52U U54C G66A | < 1e-05 s⁻¹ |  | 
4 | C10G G66U | < 1e-05 s⁻¹ | < 1e-05 s⁻¹ | < 1e-05 s⁻¹
5 | A12G A33G G40C A52G U54A C58A | < 1e-05 s⁻¹ |  | 
6 | A14G A42G C67A | 0.01 ± 0.0028 s⁻¹ | 0.00856 ± 0.0041 s⁻¹ | 
7 | C11G A15G C50G G66U | 0.000661 ± 0.00032 s⁻¹ |  | 
8 | A12U C16U G63U G66C | < 1e-05 s⁻¹ | < 1e-05 s⁻¹ | 
9 | G13C A15U C61U | < 1e-05 s⁻¹ |  | 
10 | C10G U30C G38U | < 1e-05 s⁻¹ |  | 
11 | A12G U55G G62C | < 1e-05 s⁻¹ |  | < 1e-05 s⁻¹
12 | A14G A36C G66A | < 1e-05 s⁻¹ |  | 
13 | G13C G59U C67A C71U | 5.98e-05 ± 2.4e-05 s⁻¹ |  | 
14 | G13A G41A C50U G51U C67U | < 1e-05 s⁻¹ |  | 
15 | A14C U30A G63A C67A | < 1e-05 s⁻¹ |  | 
16 | A12C A64C G66C | < 1e-05 s⁻¹ |  | < 1e-05 s⁻¹
17 | C11G C16A U31C A42U | < 1e-05 s⁻¹ |  | 
18 | A14C C34G A36C G59C | < 1e-05 s⁻¹ |  | 

Row | Variant | self-cleavage kobs at 640 uM GlcN6P [1] | self-cleavage kobs at 2500 uM GlcN6P [2] | self-cleavage kobs at 10000 uM GlcN6P [3]
19 | A14C U56A C71U | 0.000174 ± 4.2e-05 s⁻¹ | 0.000691 ± 0.00019 s⁻¹ | 
20 | A14C U47C | 0.000137 ± 2.2e-05 s⁻¹ |  | 0.00052 ± 0.00018 s⁻¹
21 | C10G C67G C68U | 0.0001 ± 4.2e-05 s⁻¹ | 7.32e-05 ± 3e-05 s⁻¹ | 2.77e-05 ± 1.3e-05 s⁻¹
22 | G13U G38U | < 1e-05 s⁻¹ |  | 
23 | C11U G32C U47C C50A | < 1e-05 s⁻¹ |  | 
24 | C10A A48C G59C | < 1e-05 s⁻¹ |  | 
25 | C10U U57C | < 1e-05 s⁻¹ |  | < 1e-05 s⁻¹
26 | C10U G37C A39G G41C A48U G62U U65A | < 1e-05 s⁻¹ | < 1e-05 s⁻¹ | 
27 | C11G C16A G43U | < 1e-05 s⁻¹ |  | 
28 | A12U U31G G41U | 0.00016 ± 5.9e-05 s⁻¹ | 0.000471 ± 0.00018 s⁻¹ | 
29 | G13U U45G C67G | < 1e-05 s⁻¹ |  | 
30 | C11A U31C A42C | < 1e-05 s⁻¹ |  | 
31 | G13U U56A C71U | 0.000105 ± 1.6e-05 s⁻¹ | 8.21e-05 ± 2.1e-05 s⁻¹ | 
32 | C10A G32C C34U | < 1e-05 s⁻¹ |  | 
33 | C11A A36U C70G | 0.000284 ± 7e-05 s⁻¹ | 0.000767 ± 0.00032 s⁻¹ | 
34 | C11A A12U C16U C70U | 0.00025 ± 7.2e-05 s⁻¹ | 0.000524 ± 0.00013 s⁻¹ | 
35 | C10A G41C C58U | < 1e-05 s⁻¹ |  | 
